The assay has as its target hB7-1-FLAG (human) (UniProt P33681). Kind of assay: flow cytometry, seven transient transfections of 293 cells, mean±SEM; used by the filing as a measure of expression.

Chain of hB7-1-FLAG (human) (P33681 other isoform, or with tags, fused parts or gaps): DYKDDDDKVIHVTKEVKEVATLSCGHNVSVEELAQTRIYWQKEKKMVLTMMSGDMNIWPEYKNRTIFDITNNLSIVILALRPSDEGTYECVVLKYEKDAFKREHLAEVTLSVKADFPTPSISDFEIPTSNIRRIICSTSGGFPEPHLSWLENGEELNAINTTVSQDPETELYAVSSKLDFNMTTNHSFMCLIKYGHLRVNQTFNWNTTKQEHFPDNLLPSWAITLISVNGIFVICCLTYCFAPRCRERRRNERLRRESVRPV

As for FLAG-specific mAb M2 (antibody), the mean fluorescence intensity (MFI) amounted to 55.

The values above are taken from patent US20100261660A1.
